Measured values published in US20200291121A1 (JOINT STOCK COMPANY BIOCAD, published 2020).

T1: cynomolgus monkey IL-5Rα, recombinant extracellular domain (cynomolgus monkey, UniProt C3VEW9 21-342)
T1 construct: extracellular domain; also called macaque IL-5Ra; cynomolgus monkey antigen (IL-5Rα)
T1 sequence: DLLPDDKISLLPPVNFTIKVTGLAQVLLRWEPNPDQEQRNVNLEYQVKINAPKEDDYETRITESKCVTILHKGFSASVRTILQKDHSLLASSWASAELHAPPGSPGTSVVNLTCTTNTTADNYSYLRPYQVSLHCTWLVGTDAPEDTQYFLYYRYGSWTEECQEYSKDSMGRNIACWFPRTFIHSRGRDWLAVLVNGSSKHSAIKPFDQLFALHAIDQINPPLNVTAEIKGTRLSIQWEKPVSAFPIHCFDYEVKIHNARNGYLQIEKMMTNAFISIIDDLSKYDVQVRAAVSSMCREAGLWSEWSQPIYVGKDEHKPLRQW

T2: mouse IL-5Rα, recombinant extracellular domain (mouse, UniProt P21183 18-339)
T2 construct: extracellular domain; also called animal IL-5Rα
T2 sequence (looked up): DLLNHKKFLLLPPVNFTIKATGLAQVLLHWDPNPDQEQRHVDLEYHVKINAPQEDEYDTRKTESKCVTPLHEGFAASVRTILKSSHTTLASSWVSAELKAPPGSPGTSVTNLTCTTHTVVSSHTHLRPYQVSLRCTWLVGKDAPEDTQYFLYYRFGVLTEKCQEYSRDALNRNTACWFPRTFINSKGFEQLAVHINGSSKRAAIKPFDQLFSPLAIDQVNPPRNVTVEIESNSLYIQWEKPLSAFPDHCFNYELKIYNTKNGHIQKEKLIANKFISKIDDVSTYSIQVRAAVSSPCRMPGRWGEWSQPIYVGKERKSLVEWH

T3: human IL-5Rα (interleukin 5 receptor α-chain), recombinant extracellular domain (human, UniProt Q01344 21-342)
T3 construct: extracellular domain; also called IL-5Ra; human antigen; not shown: C-terminal tag (EPEA, Fc or H6F)
T3 sequence (looked up): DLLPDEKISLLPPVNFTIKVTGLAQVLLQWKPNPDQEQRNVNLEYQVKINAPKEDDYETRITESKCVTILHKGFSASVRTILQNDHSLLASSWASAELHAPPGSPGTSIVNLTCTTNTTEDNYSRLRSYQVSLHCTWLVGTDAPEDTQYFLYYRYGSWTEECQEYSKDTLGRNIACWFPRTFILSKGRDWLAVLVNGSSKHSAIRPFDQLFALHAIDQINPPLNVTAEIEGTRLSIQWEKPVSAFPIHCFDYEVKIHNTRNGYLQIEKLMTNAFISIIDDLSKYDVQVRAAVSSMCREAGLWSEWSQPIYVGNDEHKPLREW


Assays:
[1] = molecular target: T1, cynomolgus monkey IL-5Rα, recombinant …; test: BLI (Octet RED 384), antibody immobilised on AR2G sensors, cynomolgus IL-5Rα in solution, 30 °C, 1:1 global model
Method: (§1) Experimental study of binding affinity of antibodies to animal IL-5Rα antigen was performed on Forte Bio Octert RED 384. Antibodies at a concentration of 20 μg/ml were immobilized on the surface of AR2G sensors (Forte Bio) according to a standard protocol and manufacturer's instructions. Analysis was conducted at 30° C. using PBS comprising 0.1% Tween 20 and 0.1% BSA as a working buffer. After baseline recording, the sensors were immersed into wells containing antigen solution (animal IL-5Rα) for 300 seconds, where the complex was associated. Complex dissociation in buffer solution was then detected for 600 seconds.
(§2) Binding curves, after subtracting a reference signal, were analyzed using Octet Data Analysis (Version 9.0) software in accordance with the standard procedure and using 1:1 Global interaction model. Anti-IL-5Rα antibodies specifically bind to cynomolgus monkey antigen. Table B. FIG. 16,17,18.

[2] = molecular target: T2, mouse IL-5Rα, recombinant extracellular …; test: BLI (Octet RED 384), antibody immobilised on AR2G sensors, antigen in solution
[3] = molecular target: IL-5Rα stably expressed on CHO-IL-5R cells; test: cell-based or functional assay
[4] = molecular target: T3, human IL-5Rα (interleukin 5 receptor …); test: BLI (Octet RED 384), human IL-5Rα immobilised on AR2G sensors, full-length antibody in solution, 30 °C, 1:1 global model
Method: as §1, with “to human” for “to animal”, “384. Human IL-5Rα” for “384. Antibodies”, “μg/ml was” for “μg/ml were”, “sensors (ForteBio)” for “sensors (Forte Bio)”, “containing antibody” for “containing antigen”, “solution” for “solution (animal IL-5Rα)”
as §2, with “human antigen with high affinity.” for “cynomolgus monkey antigen.”, “A (FIG. 11, 12, 13)” for “B. FIG. 16,17,18.”

Chain of IL-5Rα stably expressed on CHO-IL-5R cells (Q01344 whole entry): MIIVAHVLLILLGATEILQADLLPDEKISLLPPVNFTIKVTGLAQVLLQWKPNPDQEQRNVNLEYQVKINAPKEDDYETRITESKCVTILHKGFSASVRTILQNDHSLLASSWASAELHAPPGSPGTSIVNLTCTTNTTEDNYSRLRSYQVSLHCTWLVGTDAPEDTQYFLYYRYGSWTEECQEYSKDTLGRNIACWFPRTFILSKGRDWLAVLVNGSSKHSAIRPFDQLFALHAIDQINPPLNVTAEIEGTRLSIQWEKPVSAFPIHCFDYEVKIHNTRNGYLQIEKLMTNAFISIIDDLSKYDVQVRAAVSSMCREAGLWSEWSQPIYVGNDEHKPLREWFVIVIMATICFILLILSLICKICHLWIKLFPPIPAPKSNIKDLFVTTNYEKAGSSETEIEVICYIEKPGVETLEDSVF

Row | Kd [1] | binding result [2] | ADCC efficacy (EC50) on CHO-IL-5R cells with PBMC, relative to Benralizumab [3] | Kd [4] | Binder
1 | 12.2 nM | no binding | 1.6 times (against Benralizumab) | 0.667 nM | BCD133-03-020 (antibody, human IgG1, kappa) heavy: not shown light: QAGLTQPPSVSAAPGQRVTISCSGSRSNIGSGYDVHWYQQVPGTAPKLLIFDDNNRPSGVPDRFSGSKSGTSASLAITGLQAEDEADYYCQSYDSSLSGHVVFGGGTKLTVLRTVAAPSVFIFPPSDEQLKSGTASVVCLLNNFYPREAKVQWKVDNALQSGNSQESVTEQDSKDSTYSLSSTLTLSKADYEKHKVYACEVTHQGLSSPVTKSFNRGEC
2 | 5.53 nM | no binding | 1.6 times (against Benralizumab) | 0.527 nM | BCD133-03-002 (antibody, human IgG1, kappa) heavy: not shown light: QAGLTQPPSVSAAPGQRVTISCSGSRSNIGSGYDVHWYQQVPGTAPKLLIFDDNNRPSGVPDRFSGSKSGTSASLAITGLQAEDEADYYCQSYDSSLSGHVVFGGGTKLTVLRTVAAPSVFIFPPSDEQLKSGTASVVCLLNNFYPREAKVQWKVDNALQSGNSQESVTEQDSKDSTYSLSSTLTLSKADYEKHKVYACEVTHQGLSSPVTKSFNRGEC
3 | 16.8 nM | no binding | 1.6 times (against Benralizumab) | 0.0224 nM | BCD133-03-021 (antibody, human IgG1, kappa, V domains shown) VH: QVQLQESGGGLVQPGGSLRLSCAASGFTFSNYAMSWVRQAPGKGLEWVSAINSGGKSTNYADSVKGRFTISRDNAKNTLYLQMNSLRAEDTAVYYCADYATNYGVPYFGSWGQGTMVTVSS VL: QSVLTQPPSVSAAPGQRVTISCSGSRSNIGSGYDVHWYQQLPGTAPKLLIYDDNNRPSGVPDRFSGSKSGTSASLAITGLQAEDEADYYCQSYDSSLSGHVVFGGGTKLTVLR
